Reference: patent US20150246136A1 (Bayer, published 2015)

T1: C4.4a (Homo sapiens, UniProt O95274 31-326)
T1 sequence (looked up): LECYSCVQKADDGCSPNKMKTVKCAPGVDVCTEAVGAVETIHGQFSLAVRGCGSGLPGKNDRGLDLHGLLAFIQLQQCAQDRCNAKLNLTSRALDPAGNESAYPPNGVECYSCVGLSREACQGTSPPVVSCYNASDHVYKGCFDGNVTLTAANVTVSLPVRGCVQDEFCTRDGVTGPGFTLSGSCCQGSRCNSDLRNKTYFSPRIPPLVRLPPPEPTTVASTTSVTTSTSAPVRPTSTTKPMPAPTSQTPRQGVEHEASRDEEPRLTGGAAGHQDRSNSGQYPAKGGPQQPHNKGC

B1: Example 286 (antibody, human IgG1, kappa, V domains shown)
VH: QVELVESGGGLVQPGGSLRLSCAASGFTFSSYGMSWVRQAPGKGLEWVSGISSLGSTTYYADSVKGRFTISRDNSKNTLYLQMNSLRAEDTAVYYCARTGSPGTFMHGDHWGQGTLVTVSS
VL: DIQMTQSPSSLSASVGDRVTITCRASQDINNYLSWYQQKPGKAPKLLIYGASNLQSGVPSRFSGSGSGTDFTLTISSLQPEDFAVYYCQQYYGRPTTFGQGTKVEIKR
modifications: linker-toxophore on cysteine S
B2: Example 306 (antibody, human IgG1, kappa, V domains shown)
VH: B1 VH
VL: B1 VL
modifications: linker-toxophore on lysine NH
B3: Example 296 (antibody, human IgG1, kappa, V domains shown)
VH: B1 VH
VL: B1 VL
modifications: linker-toxophore on cysteine S
B4: Example 290 (antibody, human IgG1, kappa, V domains shown)
VH: B1 VH
VL: B1 VL
modifications: linker-toxophore on lysine NH
B5: Example 301 (antibody, human IgG1, kappa, V domains shown)
VH: B1 VH
VL: B1 VL
modifications: linker-toxophore on cysteine S
B6: Example 299 (antibody, human IgG1, kappa, V domains shown)
VH: B1 VH
VL: B1 VL
modifications: linker-toxophore on cysteine S
B7: Example 300 (antibody, human IgG1, kappa, V domains shown)
VH: B1 VH
VL: B1 VL
modifications: linker-toxophore on cysteine S
B8: Example 287 (antibody, human IgG1, kappa, V domains shown)
VH: B1 VH
VL: B1 VL
modifications: linker-toxophore on cysteine S
B9: Example 292 (antibody, human IgG1, kappa, V domains shown)
VH: B1 VH
VL: B1 VL
modifications: linker-toxophore on cysteine S
B10: Example 298 (antibody, human IgG1, kappa, V domains shown)
VH: B1 VH
VL: B1 VL
modifications: linker-toxophore on cysteine S
B11: Example 295 (antibody, human IgG1, kappa, V domains shown)
VH: B1 VH
VL: B1 VL
modifications: linker-toxophore on cysteine S
B12: Example 288 (antibody, human IgG1, kappa, V domains shown)
VH: B1 VH
VL: B1 VL
modifications: linker-toxophore on cysteine S
B13: Example 293 (antibody, human IgG1, kappa, V domains shown)
VH: B1 VH
VL: B1 VL
modifications: linker-toxophore on cysteine S
B14: Example 289 (antibody, human IgG1, kappa, V domains shown)
VH: B1 VH
VL: B1 VL
modifications: linker-toxophore on cysteine S
B15: Example 291 (antibody, human IgG1, kappa, V domains shown)
VH: B1 VH
VL: B1 VL
modifications: linker-toxophore on cysteine S
B16: Example 304 (antibody, human IgG1, kappa, V domains shown)
VH: B1 VH
VL: B1 VL
modifications: linker-toxophore on cysteine S
B17: Example 303 (antibody, human IgG1, kappa, V domains shown)
VH: B1 VH
VL: B1 VL
modifications: linker-toxophore on lysine NH
B18: Example 305 (antibody, human IgG1, kappa, V domains shown)
VH: B1 VH
VL: B1 VL
modifications: linker-toxophore on cysteine S
B19: Example 297 (antibody, human IgG1, kappa, V domains shown)
VH: B1 VH
VL: B1 VL
modifications: linker-toxophore on cysteine S
B20: Example 302 (antibody, human IgG1, kappa, V domains shown)
VH: B1 VH
VL: B1 VL
modifications: linker-toxophore on cysteine S
B21: Example 294 (antibody, human IgG1, kappa, V domains shown)
VH: B1 VH
VL: B1 VL
modifications: linker-toxophore on cysteine S
B22: Example 211 (antibody, human IgG1, lambda, V domains shown)
VH: EVQLLESGGGLVQPGGSLRLSCAASGFTFSSAWMSWVRQAPGKGLEWVSYISSSGSTIYYADSVKGRFTISRDNSKNTLYLQMNSLRAEDTAVYYCAREGLWAFDYWGQGTLVTVSS
VL: QSVLTQPPSVSGAPGQRVTISCTGSSSNIGAGYVVHWYQQLPGTAPKLLIYDNNKRPSGVPDRFSGSKSGTSASLAISGLRSEDEADYYCAAYDDSLSGPVFGGGTKLTVLG
modifications: linker-toxophore on cysteine S
B23: Example 215 (antibody, human IgG1, lambda, V domains shown)
VH: B22 VH
VL: B22 VL
modifications: linker-toxophore on cysteine S
B24: Example 214 (antibody, human IgG1, lambda, V domains shown)
VH: B22 VH
VL: B22 VL
modifications: linker-toxophore on cysteine S
B25: Example 217 (antibody, human IgG1, lambda, V domains shown)
VH: EVQLLESGGGLVQPGGSLRLSCAASGFTFSDYQMTWIRQTPGKGLEWVSGISWNGGSTHYADSVKGRFTISRDNSKNTLYLQMNSLRAEDTAVYYCAKGDYLVYSSYYFKSWGQGTLVTVSS
VL: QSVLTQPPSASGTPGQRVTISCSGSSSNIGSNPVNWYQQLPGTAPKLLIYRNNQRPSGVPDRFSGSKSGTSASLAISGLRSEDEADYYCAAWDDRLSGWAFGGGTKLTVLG
modifications: linker-toxophore on cysteine S

How the values were obtained:
Assay in all cases: cell-based or functional assay
Carboanhydrase IX [1] = biological target: T2, Carboanhydrase IX (Homo sapiens, UniProt Q16790 38-459)
Carboanhydrase IX [2] = biological target: T2, Carboanhydrase IX; remark: listed apart in the source
C4.4a = biological target: T1, C4.4a

Binder	MIAPaCa 2/CA9+ IC50 (Carboanhydrase IX [1])	EC50 (nM) HT29 (Carboanhydrase IX [2])	EC50 (nM) SNU-5 (Carboanhydrase IX [2])	IC50 (nM) A549: C4.4a (C4.4a)
B1	0.8 nM	0.03 nM	–	–
B2	21 nM	66 nM	33 nM	–
B3	0.6 nM	0.4 nM	–	–
B4	1.9 nM	115 nM	84 nM	–
B5	22 nM	> 30 nM	–	–
B6	0.8 nM	4.1 nM	–	–
B7	0.3 nM	5 nM	–	–
B8	69 nM	> 30 nM	–	–
B9	35 nM	223 nM	–	–
B10	1.1 nM	2.5 nM	7.8 nM	–
B11	25 nM	> 100 nM	63 nM	–
B12	12 nM	39 nM	–	–
B13	< 0.1 nM	0.1 nM	–	–
B14	78 nM	49 nM	–	–
B15	22 nM	27 nM	–	–
B16	0.019 nM	0.05 nM	0.6 nM	–
B17	0.009 nM	2.2 nM	3.3 nM	–
B18	2.6 nM	0.9 nM	2.2 nM	–
B19	0.02 nM	< 0.01 nM	–	–
B20	3.9 nM	> 30 nM	–	–
B21	1 nM	13.6 nM	21.4 nM	–
B22	–	–	–	0.076 nM
B23	–	–	–	0.046 nM
B24	–	–	–	0.04 nM
B25	–	–	–	0.053 nM
